{"source": "IntAct's records for PubMed 35512704", "parents": {"B1": {"name": "Mothers against decapentaplegic homolog 4 (Homo sapiens), Q13485 (parent)", "chain": "MDNMSITNTPTSNDACLSIVHSLMCHRQGGESETFAKRAIESLVKKLKEKKDELDSLITAITTNGAHPSKCVTIQRTLDGRLQVAGRKGFPHVIYARLWRWPDLHKNELKHVKYCQYAFDLKCDSVCVNPYHYERVVSPGIDLSGLTLQSNAPSSMMVKDEYVHDFEGQPSLSTEGHSIQTIQHPPSNRASTETYSTPALLAPSESNATSTANFPNIPVASTSQPASILGGSHSEGLLQIASGPQPGQQQNGFTGQPATYHHNSTTTWTGSRTAPYTPNLPHHQNGHLQHHPPMPPHPGHYWPVHNELAFQPPISNHPAPEYWCSIAYFEMDVQVGETFKVPSSCPIVTVDGYVDPSGGDRFCLGQLSNVHRTEAIERARLHIGKGVQLECKGEGDVWVRCLSDHAVFVQSYYLDREAGRAPGDAVHKIYPSAYIKVFDLRQCHRQMQQQAATAQAAAAAQAAAVAGNIPGPGSVGGIAPAISLSAAAGIGVDDLRRLCILRMSFVKGWGPDYPRQSIKETPCWIEIHLHRALQLLDEVLHTMPIADPQPLD", "partner": "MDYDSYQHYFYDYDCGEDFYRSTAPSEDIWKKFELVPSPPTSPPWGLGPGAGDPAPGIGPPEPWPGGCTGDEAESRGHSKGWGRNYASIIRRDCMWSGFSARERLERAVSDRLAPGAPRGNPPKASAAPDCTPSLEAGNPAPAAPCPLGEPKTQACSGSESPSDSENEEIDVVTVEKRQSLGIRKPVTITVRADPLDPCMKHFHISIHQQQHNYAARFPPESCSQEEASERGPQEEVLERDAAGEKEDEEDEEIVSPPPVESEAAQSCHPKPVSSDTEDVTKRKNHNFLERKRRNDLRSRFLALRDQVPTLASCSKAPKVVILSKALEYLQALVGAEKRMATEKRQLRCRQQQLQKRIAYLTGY"}, "B2": {"name": "Mothers against decapentaplegic homolog 4 (Homo sapiens), Q13485 (parent)", "chain": "B1 chain", "partner": "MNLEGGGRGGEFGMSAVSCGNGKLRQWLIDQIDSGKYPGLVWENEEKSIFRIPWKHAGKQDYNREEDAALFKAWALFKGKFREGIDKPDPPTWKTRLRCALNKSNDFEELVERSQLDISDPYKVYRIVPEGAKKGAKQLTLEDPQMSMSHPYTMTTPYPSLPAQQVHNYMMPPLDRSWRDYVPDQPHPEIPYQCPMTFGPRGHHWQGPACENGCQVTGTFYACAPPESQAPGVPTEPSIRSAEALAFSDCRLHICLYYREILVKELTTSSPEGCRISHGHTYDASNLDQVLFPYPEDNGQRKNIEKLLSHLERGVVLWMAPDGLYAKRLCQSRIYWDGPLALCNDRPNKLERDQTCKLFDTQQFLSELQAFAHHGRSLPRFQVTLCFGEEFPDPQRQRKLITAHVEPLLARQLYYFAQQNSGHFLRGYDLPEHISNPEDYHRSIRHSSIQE"}, "B3": {"name": "Mothers against decapentaplegic homolog 4 (Homo sapiens), Q13485 (parent)", "chain": "B1 chain", "partner": "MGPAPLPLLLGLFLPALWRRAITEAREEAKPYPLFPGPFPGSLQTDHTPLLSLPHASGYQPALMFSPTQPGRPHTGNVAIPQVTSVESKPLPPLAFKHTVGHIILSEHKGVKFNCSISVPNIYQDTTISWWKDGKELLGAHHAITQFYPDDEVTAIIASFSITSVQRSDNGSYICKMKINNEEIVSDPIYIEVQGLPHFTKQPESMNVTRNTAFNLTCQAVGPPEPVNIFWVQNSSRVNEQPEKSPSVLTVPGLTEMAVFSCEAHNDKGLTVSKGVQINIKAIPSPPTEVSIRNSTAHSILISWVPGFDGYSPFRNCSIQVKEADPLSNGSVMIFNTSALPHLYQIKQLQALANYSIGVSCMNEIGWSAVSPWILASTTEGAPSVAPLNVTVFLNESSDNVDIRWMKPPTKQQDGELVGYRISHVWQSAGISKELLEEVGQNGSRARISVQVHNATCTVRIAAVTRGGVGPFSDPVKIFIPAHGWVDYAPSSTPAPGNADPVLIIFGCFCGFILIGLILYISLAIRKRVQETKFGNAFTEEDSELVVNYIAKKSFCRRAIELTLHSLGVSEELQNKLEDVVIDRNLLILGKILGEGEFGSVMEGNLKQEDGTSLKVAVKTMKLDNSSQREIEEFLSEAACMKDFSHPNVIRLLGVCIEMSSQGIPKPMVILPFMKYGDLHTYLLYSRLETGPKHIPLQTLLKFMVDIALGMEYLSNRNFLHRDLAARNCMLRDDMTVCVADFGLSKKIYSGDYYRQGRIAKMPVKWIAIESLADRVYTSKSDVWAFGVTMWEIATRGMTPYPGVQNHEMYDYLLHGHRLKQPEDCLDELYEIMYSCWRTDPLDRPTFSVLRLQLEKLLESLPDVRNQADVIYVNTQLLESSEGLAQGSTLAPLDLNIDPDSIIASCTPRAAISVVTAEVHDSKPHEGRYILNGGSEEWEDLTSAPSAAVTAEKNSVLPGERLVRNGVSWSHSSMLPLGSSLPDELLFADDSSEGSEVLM"}, "B4": {"name": "Mothers against decapentaplegic homolog 4 (Homo sapiens), Q13485 (parent)", "chain": "B1 chain", "partner": "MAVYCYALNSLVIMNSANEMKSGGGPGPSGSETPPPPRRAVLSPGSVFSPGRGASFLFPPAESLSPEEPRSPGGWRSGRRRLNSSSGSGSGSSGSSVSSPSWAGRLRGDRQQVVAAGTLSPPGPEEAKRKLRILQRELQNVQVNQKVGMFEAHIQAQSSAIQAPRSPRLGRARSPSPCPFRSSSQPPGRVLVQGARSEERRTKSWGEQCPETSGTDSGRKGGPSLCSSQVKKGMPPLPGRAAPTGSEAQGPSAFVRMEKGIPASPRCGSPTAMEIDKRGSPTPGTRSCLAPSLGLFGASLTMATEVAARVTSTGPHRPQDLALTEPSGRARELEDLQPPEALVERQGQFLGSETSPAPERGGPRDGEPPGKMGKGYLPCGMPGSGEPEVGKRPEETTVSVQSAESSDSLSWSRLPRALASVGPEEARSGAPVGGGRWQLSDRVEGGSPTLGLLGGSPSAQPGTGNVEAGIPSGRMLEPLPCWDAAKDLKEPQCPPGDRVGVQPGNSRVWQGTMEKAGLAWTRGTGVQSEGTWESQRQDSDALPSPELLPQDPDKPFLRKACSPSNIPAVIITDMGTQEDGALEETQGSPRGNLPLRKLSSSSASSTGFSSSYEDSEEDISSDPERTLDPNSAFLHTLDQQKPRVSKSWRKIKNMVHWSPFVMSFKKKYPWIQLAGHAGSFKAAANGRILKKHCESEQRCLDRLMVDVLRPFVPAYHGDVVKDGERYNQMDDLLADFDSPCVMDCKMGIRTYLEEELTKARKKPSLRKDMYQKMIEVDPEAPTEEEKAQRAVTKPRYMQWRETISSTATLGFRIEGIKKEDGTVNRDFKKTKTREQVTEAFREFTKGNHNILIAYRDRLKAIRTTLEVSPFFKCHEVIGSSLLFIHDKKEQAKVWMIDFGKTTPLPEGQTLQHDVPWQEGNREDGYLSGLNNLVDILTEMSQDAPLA"}}, "data": [{"variants_of": "B1", "details": "with mycl_human MYCL", "values": [{"variant": "R361C", "effect of a mutation on the interaction": "with no effect"}]}, {"variants_of": "B2", "details": "with irf4_human IRF4, Q15306", "values": [{"variant": "R361C", "effect of a mutation on the interaction": "with no effect"}]}, {"variants_of": "B2", "details": "with irf4_human IRF4, Q15306", "remark": "another data set of the same source", "values": [{"variant": "R361H", "effect of a mutation on the interaction": "with no effect"}]}, {"variants_of": "B2", "details": "with irf4_human IRF4, Q15306", "remark": "another data set of the same source", "values": [{"variant": "D351H", "effect of a mutation on the interaction": "with no effect"}]}, {"variants_of": "B2", "details": "with irf4_human IRF4, Q15306", "remark": "another data set of the same source", "values": [{"variant": "G386D", "effect of a mutation on the interaction": "with no effect"}]}, {"variants_of": "B3", "details": "with mertk_human MERTK", "values": [{"variant": "G386D", "effect of a mutation on the interaction": "with no effect"}]}, {"variants_of": "B3", "details": "with mertk_human MERTK", "remark": "another data set of the same source", "values": [{"variant": "R361C", "effect of a mutation on the interaction": "with no effect"}]}, {"variants_of": "B3", "details": "with mertk_human MERTK", "remark": "another data set of the same source", "values": [{"variant": "R361H", "effect of a mutation on the interaction": "with no effect"}]}, {"variants_of": "B3", "details": "with mertk_human MERTK", "remark": "another data set of the same source", "values": [{"variant": "D351H", "effect of a mutation on the interaction": "with no effect"}]}, {"variants_of": "B4", "details": "with ip3kb_human ITPKB", "values": [{"variant": "G386D", "effect of a mutation on the interaction": "with no effect"}]}, {"variants_of": "B4", "details": "with ip3kb_human ITPKB", "remark": "another data set of the same source", "values": [{"variant": "D351H", "effect of a mutation on the interaction": "with no effect"}]}, {"variants_of": "B4", "details": "with ip3kb_human ITPKB", "remark": "another data set of the same source", "values": [{"variant": "R361C", "effect of a mutation on the interaction": "with no effect"}]}]}
